Laboratory results from patent publication US20240115668A1, “TREATMENT OF SPINAL CORD INJURY WITH PTEN INHIBITOR” (KOLON TISSUEGENE, INC., priority 2020, published 2024).
Where no end group is shown, it is not given here.

Tests used:
PTEN [1] = molecular target: T1, PTEN (Homo sapiens, UniProt P60484); details: previous study of Odriozola et al.; read-out: IC50 (in vitro PTEN activity, Odriozola et al.); cited from earlier work
Target sequence in this assay (P60484 whole entry, species assumed): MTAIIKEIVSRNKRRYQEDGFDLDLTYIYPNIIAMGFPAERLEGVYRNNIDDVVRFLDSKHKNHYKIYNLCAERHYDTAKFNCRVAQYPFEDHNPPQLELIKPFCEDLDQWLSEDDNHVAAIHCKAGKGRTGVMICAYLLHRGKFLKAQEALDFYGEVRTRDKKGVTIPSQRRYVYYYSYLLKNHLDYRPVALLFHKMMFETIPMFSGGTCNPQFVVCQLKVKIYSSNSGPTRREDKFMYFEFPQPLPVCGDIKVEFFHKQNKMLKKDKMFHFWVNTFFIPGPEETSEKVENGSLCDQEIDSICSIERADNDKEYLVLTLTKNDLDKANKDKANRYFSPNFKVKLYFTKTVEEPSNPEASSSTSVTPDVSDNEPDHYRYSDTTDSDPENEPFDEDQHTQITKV

[2] = system: endogenous Akt protein in PC12 cells; assay: Western blot of Akt activation (phosphorylation) level in PC12 cell lysates; format: cell-based, rat; details: differentiated PC12 cells, endogenous or overexpressed PTEN; TGN-1 10 and 100 μM, TGN-4 10 μM; 24 hr; anti-phospho Akt antibody
Description: PC12 rat pheochromocytoma cells were seeded to 6-well plate (0.6×10^6 cells/well) and cultured with DMEM media containing 7.5% FBS and 7.5% Goat Serum. After the cell confluency reached around 60˜ 70%, NGF (nerve growth factor, 50 ng/mL) was added to the PC12 cells for differentiation and incubated for 5 more days. Then, fresh media containing different amounts of TGN peptides in DMSO solution were added to each well and incubated further for 24 hr. For PTEN overexpression, PC12 cells were seeded in 6-well plate (1.0×10^6 cells/well) and differentiated with NGF (50 ng/mL) as above. DNA-Lipofectamine 2000 mixture was prepared for each well of cells to be transfected by firstly adding 2˜ 2.5 μg of human PTEN c-DNA into 500 μl of Opti-MEM. 3.75-8.75 μl of Lipofectamine 2000™ reagent was added next to the above diluted DNA solution, mixed gently and incubated for 25 minutes at room temperature. Growth media of PC12 cells in 6-well plate was exchanged with fresh media and 500 μl of the DNA-Lipofectamine 2000 complex was added to each well for transfection. Transfected cells were incubated at 37° C. in 5.0% CO2 incubator for 24-48 hours post-transfection before assaying for transgene expression.
After culturing, PC12 cells were collected from the 6-well plate and centrifuged down with bench-top centrifuger to make cell pellet (13,000 rpm, 5 min at RT). […]

PTEN [3] = molecular target: T1, PTEN; assay: In vitro PTEN activity assay / IC50 assay (Malachite Green phosphate detection, C8-PIP3 liposome substrate); format: biochemical; parameters: purchased R&D Systems, Inc; details: 10 μM peptide, 20 ng recombinant human PTEN, 0.1 mM C8-PIP3 liposome
Target sequence in this assay (P60484 whole entry): as the sequence (P60484 whole entry, species assumed) above
Excerpt: In vitro PTEN activity assay was designed to check PTEN lipid phosphatase activity to convert phosphatidylinositol triphosphate (PIP3) to phosphatidylinositol diphosphate (PIP2) and produce phosphate ion (Pi). 1,2-dioctanoyl-sn-glycero-3-phospho-(1′-myo-inositol-3,4,5-triphosphate) (C8-PIP3) was used as PTEN substrate and prepared as lipid vesicle (liposome) with other phospholipids because PTEN as lipid phosphatase is an interfacial enzyme. For liposome preparation, C8-PIP3, DOPS (1,2-dioeloyl-sn-glycero-phosphoserine) and DOPC (1,2-dioeloyl-sn-glycero-phosphocholine) were mixed together with 800 μL of liposome buffer (50 mM Tris, 100 mM NaCl, 10 mM MgCl2, 5 mM DTT, pH=8.0) to final concentration of 0.1 mM of C8-PIP3, 0.25 mM DOPS and 0.25 mM DOPC. The lipid mixture was then sonicated at 4° C. for 30 min to produce liposome. After sonication, the liposome solution was briefly centrifuged to remove remaining lipids.
For PTEN activity assay, 20 ng of recombinant human PTEN protein was mixed with L of completed liposome solution. PTEN assay buffer (1 mM Tris, 20 mM DTT and 0.5% NP-40, pH=8.0) was added up to 100 μL as final volume. […] After incubation, the inorganic phosphate ions produced by PTEN protein was detected using Malachite Green phosphate detection kit. […]
All data represent experimentation in triplicate and the IC50 values were calculated by Prism 5 software (GraphPad Software). […]

## Cp23: synthetic phosphomimic peptide of Odriozola et al. encompassing PTEN AA368-390, no phosphorylated Serine residues (DVSDNEPDHYRYSDTTDSDPENE; UniProt P60484 368-390, looked up, fragment)
PTEN [1]
  IC50: ~1030 µM

## RRRRRRRR-SDDEYTDNPDSRYVSDTPVDTEH-amide (RRRRRRRRSDDEYTDNPDSRYVSDTPVDTEH-NH2) [TGN-4, scrambled peptide of TGN-1, negative control]
[2]
  Activation (phosphorylation) level of Akt protein: did not increase the activation level of AKT protein
PTEN [3]
  Inhibition of PTEN activity (in words): no significant inhibition of PTEN activity

## RRRRRRRR-DEHDTEYTPDYRQETHFNSQPTDKSDVI-amide (RRRRRRRRDEHDTEYTPDYRQETHFNSQPTDKSDVI-NH2) [TGN-5, scrambled peptide of TGN-2/TGN-3]
PTEN [3]
  Inhibition of PTEN activity (in words): no significant inhibition of PTEN activity
